Assay: soluble on expression in E. coli; label from the status in PepcDB or PDB records

Which “soluble on expression in E. coli” value does the source give for “MGHHHHHHSHIKKNNHHEENISSKMKGLNGKVSDLEKAAAQRKAKLDENSAFLQFNWKADVVESWIGEKENSLKTDDYGRDLSSVQTLLTKQETFDAGLQAFQQEGIANITALKDQLLAAKHVQSKAIEARHASLMKRWSQLLANSAARKKKLLEAQSHFRKVEDLFLTFAKKASAFNSWFENAEEDLTDPVRCNSLEEIKALREAHDAFRSSLSSAQADFNQLAELDRQIKSFRVASNPYT” here?
The value was “not soluble”.

For “MAHHHHHHMESINRNNNINKNEIDNKINNNNNMDVPIEGNEKSQEGDIIGQFGVGFYSSFVVSNKVEVFTRSYDNNSSKGYHWVSYGNGTFTLKEVDNIPKGTKIICHLKDSCKEFSNIQNVQKIVEKFSSFINFPVYVLKKKKILQT”, which “soluble on expression in E. coli” value is on record?
The value was “soluble”.

For “MAKGIMLHEVGEQVDQYLLIKSSTKGIASNGKPFLTLMLQDQSGDIEAKLWDAKQSDEVTYAPQTIVKVVGDVHHYRGRTQLKLRNIRPVSEQENVNIDDFLETAPIPKNEMMDTITQYIFEMKNPNIQRITRFLVKKHEAEFMDYPAATKNHHEFVSGLAYHVVSMLNLAKAIADLYPSLDRDLLYAGVILHDLGKVKELSGPVSTSYTVEGNLLGHISIMVTELSKAAEELQIDSEEVLILQHLILSHHGKAEWGSPKPPMVKEAEILHYIDNLDAKMNMMDRALERVKPGEYTERVFALENRSFYKPTFHK”, which “soluble on expression in E. coli” value is on record?
The value was “not soluble”.

Which “soluble on expression in E. coli” value does the source give for “MGYIQSGKSKVEIVNVSETVTSAANVSQYPVESGAPITDNMMYTGGPVTISGWILAKNGNAAEQAYNTLVAWQKDVRWIVYRGRSYFKNAVIQDISKGYDTVENGFTITITLQPIRVAKTIWEKIPQPPVAKQPSKPSNAVYVTVQPGNTYWGWWQQYGTSIQQLRDWNKWPDRFIPIGARARVK” here?
The value was “not soluble”.

Which “soluble on expression in E. coli” value does the source give for “MVKITNNVHQFGYEPAEFLSKKLTFTDIVHPEDLDRIVKEMVAFLKNDIVYFEQDYRIFTKGGDIRWVYEKTILKTDDTGLPTLAKGYLLDITER” here?
Its value is “not soluble”.

Which “soluble on expression in E. coli” value does the source give for “MGSDKIHHHHHHMAQRVGPTRRGVDGTPVEPLSIKHPNAAGIDIGGASHYVAVPPDRVGKGEPAVREFGPHTEDLVAVANWLCACRIDTVALESTGVYWIALYELLQARGFEVWLVDAKSVRHVKARKSDVLDCQWLQQLHSFGLLSQAHRPDEQVCALREMSRLRDITIDERARHTQRMQKALTQMNVQLTNVITDITGETGMNIIRAIVAGGATAWPSRS” here?
Its value is “not soluble”.

Which “soluble on expression in E. coli” value does the source give for “MAKLDDWTDIFLDDEGNFRASADGDVQLVTGKAAYLQDVKHELETVLGSYPFDENYGTRLITYLQRENTELARQELIQDVEEVVMRHSFVVPGSVDVRANSWTLREIEFSVSFGVQTSGGIEPAELTVQITVDGVRVVRSE” here?
The value was “not soluble”.

Which “soluble on expression in E. coli” value does the source give for “MVQRLISANASEIKRMSKEELFQSIKASEGRVILSENVVVHPSVAGDITCAEMSKAYGADMILLNVFDVNQPIVVAAYEGQYTAETCVPNDEVVHRLKELVGLPIGMNVEPVDENLDLASTRVSIEPGRKASAATFKKANELGLDFILLTGNPGTGVTNDLIAKNVALAKKHFDGIIIAGKMHSSGVDEPVVSLKSAEQFIEAGADIVLVPAVGTVWGIDDQQVKEVVDFAHSKGKLVMSAIGTSQESAQPEVIQAIGIRNKILGVDIQHIGDANMGLVGIENIKELSDAIRGKRHTVARMARSINR” here?
Its value is “not soluble”.

With “SNLYTERVLSVHHWNDTLFSFKTTRNPGLRFKTGQFVMIGLEVDGRPLMRAYSIASPNYEEHLEFFSIKVPDGPLTSRLQHLKEGDELMVSRKPTGTLVHDDLLPGKHLYLLSTGTGMAPFLSVIQDPETYERYEKVILVHGVRWVSELAYADFITKVLPEHEYFGDQVKEKLIYYPLVTREPFRNQGRQTDLMRSGKLFEDIGLPPMNPQDDRAMICGSPSMLEETSAVLDSFGLKISPRMGEPGDYLIERAFVEK” as the sequence, how does the “soluble on expression in E. coli” value read?
Its value is “soluble”.

With “MGHHHHHHSHVGFDTGFMQFFRVREKSMTMAELLIGSRKTYGLNLIGGVRRDILKEQRLQTLKLVREMRADVSELVEMLLATPNMEQRTQGIGILDRQIARDLRFDHPYADYGNIPKTLFTFTGGDVFSRVMVRVKETFDSLAMLEFALDNMPDTPLLTEGFSYKPHAFALGFVEAPRGEDVHWSMLGDNQKLFRWRCRAATYANWPVLRYMLRGNTVSDAPLIIGSLDPCYSCTDR” as the sequence, how does the “soluble on expression in E. coli” value read?
The value was “not soluble”.

Which “soluble on expression in E. coli” value does the source give for “GMGGAALPDNGWPADRIDTESAHSARIYDYIIGGKDYYPADKEAGDAMSREWPALPVHMRANRDWMNRAVAHLAKEAGIRQFLDIGTGIPTSPNLHEIAQSVAPESRVVYVDNDPIVLTLSQGLLASTPEGRTAYVEADMLDPASILDAPELRDTLDLTRPVALTVIAIVHFVLDEDDAVGIVRRLLEPLPSGSYLAMSIGTAEFAPQEVGRVAREYAARNMPMRLRTHAEAEEFFEGLELVEPGIVQVHKWHPDAATADGIRDEDIAMYGAVARKP” here?
The value was “soluble”.

Which “soluble on expression in E. coli” value does the source give for “MSLKTVVVIGGGITGLSTMFYLEKLKKDYNIDLNLILIEKEEYLGGKIHSVEEKDFIMESGADSIVARNEHVMPLVKDLNLEDEMVYNETGISYIYSENMLHPIPSDTIFGIPMSVQSLFSSTLVSTKGKIVALKDFITKNKEFTKDTSLALFLESFLGKELVERQIAPVLSGVYSGKLNELTMASTLPYLLDYKNKYGSIIKGFEENKKQFQSAGNKKFVSFKGGLSTIINRLEEVLTETVVKKGVITTAVSKQEDRYEISFANHETIQADYVVLAAPHDIAQTLLQSNELNEQFNTFKNSSLISIYLGFDILDEQLPADGTGFIVTENSDLHCDACTWTSRKWKHTSGKQKLLVRMFYKSTNPVYETIKNYSEEELVRVALYDIEKSLGIKGEPEVVEVTNWKDLMPKYHLEHNQAVQALQEKMTNLYPNVYLAGASYYGVGIGACIGNGKNIANEIMDTLNKEGHHHHHH” here?
Its value is “soluble”.

With “MGSDKIHHHHHHMKKYYLLSLISASLIGATCIQCTSPKQKSGENTLPQKSELFVSLPDYCPTPDGMAIAPNGDLILACPNFADITQPACLMRITKDGAVSKWLDVPVLEETGWASPMGLAFNEEGDLFISDNQGWSGAEKAKNKGRVLRLKFENDQLKETITVASGMEHPNGIRIRNGKLYVTQSSLSQIKDPSGLLVSGVYCFDMNDRDIAVTNTSADQNLLTTVITKNPEVQYGLDGIVFNEAGDLFVGNFGDGAIHRIKMDAEGKVVSNDVWAQDTTQLRTTDGMCIDDKGNIWVADFSANAVARVDKDGKIQRIAQSPDCDGSDGGLDQPGEPIVWNGQVIVSCFDLVTGPDKVNTKHDKPFTLAKLSLE” as the sequence, how does the “soluble on expression in E. coli” value read?
Its value is “not soluble”.

For “MVMEDNESCASRVIFDALPTSQATMDRRERIKMEVFDEVLRRLRQSDIEDAHLPGFEDDLWNHFNRLPARYALDVNVERAEDVLMHKRLLHSAYDPQNRPAIEVHLVQVQPAGISADLDSTSNDAGHSSPTRKSIHPPPAFGSSPNLEALALAASLSQDEDADNSVHNNSLYSRPLHEITFSTEDKPKLLFQLTALLAELGLNIQEAHAFSTTDGYSLDVFVVDGWPYEETERLRISLEKEAAKIELQRPDFSEIIEQLQEIAKEVGEEGEEKKKSSTGLGGGIFAALRRSTTHH”, which “soluble on expression in E. coli” value is on record?
The value was “soluble”.

With “MASISTPFPISLHPKTVRSKPLKFRVLTRPIKASGSETPDLTVATRTGSKDLPIRNIPGNYGLPIVGPIKDRWDYFYDQGAEEFFKSRIRKYNSTVYRVNMPPGAFIAENPQVVALLDGKSFPVLFDVDKVEKKDLFTGTYMPSTELTGGYRILSYLDPSEPKHEKLKNLLFFLLKSSRNRIFPEFQATYSELFDSLEKELSLKGKADFGGSSDGTAFNFLARAFYGTNPADTKLKADAPGLITKWVLFNLHPLLSIGLPRVIEEPLIHTFSLPPALVKSDYQRLYEFFLESAGEILVEADKLGISREEATHNLLFATCFNTWGGMKILFPNMVKRIGRAGHQVHNRLAEEIRSVIKSNGGELTMGAIEKMELTKSVVYECLRFEPPVTAQYGRAKKDLVIESHDAAFKVKAGEMLYGYQPLATRDPKIFDRADEFVPERFVGEEGEKLLRHVLWSNGPETETPTVGNKQCAGKDFVVLVARLFVIEIFRRYDSFDIEVGTSPLGSSVNFSSLRKASF” as the sequence, how does the “soluble on expression in E. coli” value read?
Its value is “soluble”.

With “MFSIPPLPWGYDGLAAKGLSKQQVTLHYDKHHQGYVTKLNAAAQTNSALATKSIEEIIRTEKGPIFNLAAQIFNHTFYWESMCPNGGGEPTGKVADEINASFGSFAKFKEEFTNVAVGHFGSGWAWLVKDTNSGKLKVYQTHDAGCPLTEPNLKPLLTCDVWEHAYYVDYKNDRAAYVQTFWNVVNWKNVERQL” as the sequence, how does the “soluble on expression in E. coli” value read?
The value was “soluble”.

For “MAAARIPMSDNLPWKTWTPDDLAPPPAEFVPMAESEETIIEEVEPSLEQQLAQLQMQAHEQGYQAGIAEGRQQGHEQGYQEGLAQGLEQGLAEAKAQQAPIHARMQQLVSEFQTTLDALDSVIASRLMQMALEAARQVIGQTPTVDNSALIKQIQQLLQQEPLFSGKPQLRVHPDDLQRVDDMLGATLSLHGWRLRGDPTLHPGGCKVSADEGDLDASVATRWQELCRLAAPGVV”, which “soluble on expression in E. coli” value is on record?
Its value is “soluble”.

With “DDPQRVTWPTNAGTIQQALKRGYVVVAAGIRGRTTVDKSGQRVGQAPAFIVDMKAAIRYVKYNQGRLPGDTNRIITNGTSAGGATSALAGASGNSAYFEPALTALGAAPATDDIFAVSAYCPIHNLEHADMAYEWQFNGINDWHRYQPVAGTTKNGRPKFEPVSGQLTVEEQALSLALKAQFSTYLNQLKLTASDGTHLTLNEAGMGSFRDVVRQLLISSAQTAFDQGTDIHKYAGFVVTGNQVTDLDLSAYLKSLTRMKAVPAFDQLDLTSPENNLFGDATAKAKHFTALAQTRSTVTAQLADAELIQAINPLSYLTTTSSRVAKHWRIRHGAADRDTSFAIPIILAIMLENHGYGIDFALPWDIPHSGD” as the sequence, how does the “soluble on expression in E. coli” value read?
The value was “not soluble”.

Which “soluble on expression in E. coli” value does the source give for “MEGVQEVEIDAPLSGWHPAEGEDASFSQSINYPASSVNMADDQNISAQIRGKIKNYAAAGKVQQGRLVVNGASMPQRIESDGSFARPYIFTEGSNSVQVISPDGQSRQKMQFYSTPGTGTIRARLRLVLSWDTDNTDLDLHVVTPDGEHAWYGNTVLKNSGALDMDVTTGYGPEIFAMPAPIHGRYQVYINYYGGRSETELTTAQLTLITDEGSVNEKQETFIVPMRNAGELTLVKSFDWLEHHHHHH” here?
The value was “not soluble”.

With “MKKLLFFTLLLFGVLSVRSLADGCNAQVCMCPNGGYVTTGQYCSTSSGESWIITPIIGTVAIDPATGKWASISNTKDRKEAKNDVLERCGSDCKVFMVDSKRCVGVAYSKSDKIIGSDSATDNFGGIGYNTRVERSNEKALKKCEKNGGKDCKIIANVCAVEGTTKY” as the sequence, how does the “soluble on expression in E. coli” value read?
The value was “not soluble”.

For “MKKVNLAVVGATGMVGRTFIKVLEERNLPIDNIYFFSSSRSAGSTVTFNNKEYVVEELTETSFDRGIDIALFSAGASVSEKFAPIAASKGCVVVDNSSCWRMNEKVPLVVPEVNPQDISCHQGIIANPNCSTIQAVVVLKPLHDKYKIKRIVYSTYQAVSGAGHNGYMDLENGLKGEPPKKFPHPIAGNCLPHIDSFLPNGYTKEEMKMVNETRKILGDYSIRITATTVRVPVFNGHSESINVEFEKQFDLEELKEVLRNAPGVVVQDDVANNVYPMPIYASGRDETFVGRIRRDESVESGVNLWVVADNIRKGAATNAVQIAEELIKMWNK”, which “soluble on expression in E. coli” value is on record?
Its value is “soluble”.

With “MSLMGYKNNRVGYQKELLTSRAVIKKDNYAIIPHDGLVQNAVPGFENVDISILGSPKLGATFVDYIATFHKNGQQTTGFGGDGIQTLVYVIDGRLRVSDGQETHELEAGGYAYFTPEMKMYLANAQEADTEVFLYKKRYQPLAGHQPYKVVGSIHDQQPEEYEGMTDVLLWSLLPKEFDFDMNMHILSFEPGASHAYIETHVQEHGAYLISGQGMYNLDNEWYPVEKGDYIFMSAYVPQAAYAVGREEPLMYVYSKDANREPELEGGSHHHHHH” as the sequence, how does the “soluble on expression in E. coli” value read?
The value was “soluble”.

Which “soluble on expression in E. coli” value does the source give for “MPKLSAFYYQVLEDFGYIYDSSITVPPVPVPVWPYTLDYKISHECKSGTCPSRTFPGVWEVPLNTHYVEGYEGGHCPYLDQCVLHNLDEEEVFQWLQEDFSRYYEQNKAPYMMPFHTNWFQTKPLENGLHKFLDWALELLEHHHHHH” here?
Its value is “not soluble”.

From the DeepSol protein solubility set
